In the supplement of paper PMC9170038:

System: MS2 coat protein
Assay: apparent KD of MS2 coat protein; designed switch direction (-1 OFF switch, 1 ON switch): 1; higher = weaker reporter binding
Summary of the method: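 Designed RNA switches with common flanks were made on Illumina chips by stalled E. coli RNA polymerase. Titration with SNAP-549-labelled MS2 coat protein doubled from 0.7 or 1.5 nM up to 3 µM. Apparent KD is each design's median over clusters after curve-fitting normalised fluorescence.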

[1] = input ligand: microRNA oligo, concentration not stated
[2] = Eterna round: R95, input ligand: FMN 200 uM
[3] = Eterna round: R95, input ligand: microRNA oligo, concentration not stated
[4] = Eterna round: R95, input ligand: none

Sequence	apparent KD of MS2 coat protein (input ligand: FMN 200 uM)	apparent KD of MS2 coat protein [1]	apparent KD of MS2 coat protein (input ligand: none)	apparent KD of MS2 coat protein [2]	apparent KD of MS2 coat protein [3]	apparent KD of MS2 coat protein [4]
GGUCCAUCAUGAGGAUAUGGCACCUUAUUGGUGCCAGAAGGCAUGUAAAUUAUAAUAACAUGAGGAUCACCCAUGUAUUGGACC [Eli NG1ss - 95] (Eterna round: R96, puzzle: Same State NG 1)	44.6 nM	218 nM	492 nM			
GGUCGGACUCACAUGAGGAUCACCCAUGUUGCGGAAACGCAGCAGGAUAUCUGUCCGAAAAGGUCAGAGAAGGGCUAACCGACC [Fiskers NG3ss - 57] (Eterna round: R96, puzzle: Same State NG 3)	197 nM	596 nM	1310 nM			
GGUCGGACUCACAUGAGGAUCACCCAUGUUGCGGAAACGCGGCAGGAUAUCUGUCCGAAAAGGUCAGAGAAGGGCUAACCGACC [Fiskers NG3ss - 56] (Eterna round: R96, puzzle: Same State NG 3)	52.2 nM	254 nM	343 nM			
GGUGCUGUCACAGGAUAUCAUGCGGAAAUCGCGUGAGAAGGGUGGACUCUGUCAUUCACGGAGGACAUGAGGAUCACCCAUGUG [SS NG10LRO20] (Eterna round: R96, puzzle: Same State NG 1)	68.5 nM	5.67 nM	20.2 nM			
GGUGGGUUACUACCAACACAUGAGGAUCACCCAUGUUUUGGGAAGGAUAUGGUACCUAUUUGGUACCAGAAGGUCCAGUUAGUG [salish99_SSNG3_r04_703] (Eterna round: R96, puzzle: Same State NG 3)	61.9 nM	37.7 nM	40 nM			
GGUGGGUUGCUACCGACACAUGAGGAUCACCCAUGUUUUGGGAAGGAUAUGGUACCUAUUUGGUACCAGAAGGUCCCGUUGGUG [salish99_SSNG3_r04_707] (Eterna round: R96, puzzle: Same State NG 3)	136 nM	136 nM	133 nM			
GGUGUACAUGAGGAUCACCCAUGUCGACCGCUCACAGGAUAUUUAUUACAAACUGGUAGCGGAGAAGGGUGAGGGC [Maarraar] (puzzle: Same State 1)				36.4 nM	32.6 nM	37.6 nM
GGUUGUUAGUGAGGAUAUACGUACACUCUACAUGAGGAUCACCCAUGUUUUGCCCUUGAUUGUUGGUAGAAGGCACUUGGUUAU [JR_SSNG2_Sub050] (Eterna round: R96, puzzle: Same State NG 2)	40.7 nM	84.7 nM	87.3 nM			
GGUUUAGUCAAGCGCAGUUGCACUUGAAAACAUGAGGAUCACCCAUGUUUGGGACAAGCUUUGCUCCUCGUCUUUCC [Dicebior] (puzzle: Sensor for hsa-mir-208a)				194 nM	78.2 nM	386 nM
GUACAUAUCAGAGGAUAUCACGUCGUUUAGACGUGAGAAGGCUGAUCACACAUGAAUAUUAAUACAUGAGGAUCACCCAUGUAC [SSNG1/13-A3] (Eterna round: R96, puzzle: Same State NG 1)	23.8 nM	31.2 nM	32.7 nM			
GUAGCAUACCGAGGAUAUUCAUAAUACAUGAGGAUCACCCAUGUAAGGCCACAUUAGUGGCCUUGGGAGAAGGCGGAAUGCUAC [Xeonanis - 20 Mod43] (Eterna round: R96, puzzle: Same State NG 2)	13.7 nM	35.7 nM	44 nM			
GUAGCAUACCGAGGAUAUUCAUACCGGAAACGGACAUGAGGAUCACCCAUGUGGCGAAAGCCUUGGGAGAAGGCGGAAUGCUAC [Xeonanis - 20 Mod75] (Eterna round: R96, puzzle: Same State NG 2)	18.4 nM	341 nM	675 nM			
GUAGCAUACCGAGGAUAUUCAUAUAAUAAAUAACAUGAGGAUCACCCAUGUAGGCGAAAGCCUUGGGAGAAGGCGGAAUGCUAC [Xeonanis - 20 Mod57] (Eterna round: R96, puzzle: Same State NG 2)	13.5 nM	108 nM	112 nM			
GUAGCAUACCGAGGAUAUUCAUAUAAUAACAUGAGGAUCACCCAUGUUUAUAGGCGAAAGCCUUGGGAGAAGGCGGAAUGCUAC [Xeonanis - 20 Mod63] (Eterna round: R96, puzzle: Same State NG 2)	10.4 nM	12.3 nM	18.8 nM			
GUAGCAUACCGAGGAUAUUCAUAUAAUAAUAACAUGAGGAUCACCCAUGUAAGGCGAAAGCCUUGGGAGAAGGCGGAAUGCUAC [Xeonanis - 20 Mod60] (Eterna round: R96, puzzle: Same State NG 2)	11.6 nM	30 nM	63.6 nM			
GUAGCAUACCGAGGAUAUUCAUAUACAUGAGGAUCACCCAUGUUUAGGCCACAUUAGUGGCCUUGGGAGAAGGCGGAAUGCUAC [Xeonanis - 20 Mod44] (Eterna round: R96, puzzle: Same State NG 2)	13 nM	15.7 nM	23.4 nM			
GUAGCAUACCGAGGAUAUUCAUAUACAUGAGGAUCACCCAUGUUUAUAGGCCGAUUACGGCCUUGGGAGAAGGCGGAAUGCUAC [Xeonanis - 20 Mod25] (Eterna round: R96, puzzle: Same State NG 2)	11.7 nM	9.52 nM	17.6 nM			
GUAGCAUACCGAGGAUAUUCAUAUUAACAUGAGGAUCACCCAUGUUGGCCACAUUAGUGGCCUUGGGAGAAGGCGGAAUGCUAC [Xeonanis - 20 Mod38] (Eterna round: R96, puzzle: Same State NG 2)	19.6 nM	107 nM	140 nM			
GUAGCAUACCGAGGAUAUUCAUAUUAUAACAUGAGGAUCACCCAUGUAGGCCGAUUACGGCCUUGGGAGAAGGCGGAAUGCUAC [Xeonanis - 20 Mod19] (Eterna round: R96, puzzle: Same State NG 2)	27.9 nM	229 nM	342 nM			
GUAGCAUACCGAGGAUAUUCAUAUUAUAACAUGAGGAUCACCCAUGUAGGUCGAUUACGACCUUGGGAGAAGGCGGAAUGCUAC [Xeonanis - 20 Mod35] (Eterna round: R96, puzzle: Same State NG 2)	34.7 nM	307 nM	210 nM			
GUAGCAUGCAGCGAGGAUAUUCAUAUUAAAACAUGAGGAUCACCCAUGUAGGCCAAAAGGCCUUGGGAGAAGGCGCACAUGCUAC [Xeonanis - 20] (Eterna round: R96, puzzle: Same State 2)	37.8 nM	360 nM	536 nM			
GUAGCAUGCAGCGAGGAUAUUCAUAUUAAAACAUGAGGAUCACCCAUGUAGGCCAAAAGGCCUUGGGAGAAGGCGCACAUGCUAC [Xeonanis - 20] (puzzle: Same State 2)				31.2 nM	527 nM	717 nM
